Reference: the supplement of paper PMC11246515
± gives the standard deviation of the averaged measurements.

Assay: total protein half-life in vivo (active degradation + dilution); higher = more stable protein
[1] = E. coli NCM3722 delta-clpP delta-lon delta-hslV, growth: N-lim chemostat, doubling time 6 h
[2] = E. coli NCM3722 delta-clpP, growth: N-lim chemostat, doubling time 6 h
[3] = E. coli NCM3722 delta-hslV, growth: N-lim chemostat, doubling time 6 h
[4] = E. coli NCM3722 delta-lon, growth: N-lim chemostat, doubling time 6 h
[5] = E. coli NCM3722 delta-smpB, growth: N-lim chemostat, doubling time 6 h
[6] = wild type E. coli NCM3722, growth: C-lim chemostat, doubling time 3 h
[7] = wild type E. coli NCM3722, growth: C-lim chemostat, doubling time 6 h
[8] = wild type E. coli NCM3722, growth: C-lim chemostat, doubling time 12 h
[9] = wild type E. coli NCM3722, growth: N-lim chemostat, doubling time 6 h
[10] = wild type E. coli NCM3722, growth: N-lim chemostat, doubling time 12 h
[11] = wild type E. coli NCM3722, growth: P-lim chemostat, doubling time 6 h
[12] = wild type E. coli NCM3722, growth: P-lim chemostat, doubling time 12 h

Row | Sequence | total protein half-life in vivo [1] [h] | total protein half-life in vivo [2] [h] | total protein half-life in vivo [3] [h] | total protein half-life in vivo [4] [h] | total protein half-life in vivo [5] [h] | total protein half-life in vivo [6] [h] | total protein half-life in vivo [7] [h] | total protein half-life in vivo [8] [h] | total protein half-life in vivo [9] [h] | total protein half-life in vivo [10] [h] | total protein half-life in vivo [11] [h] | total protein half-life in vivo [12] [h]
1 | MEIIMRNLCFLLTLVATLLLPGRLIAAALPQDEKLITGQLDNGLRYMIYPHAHPKDQVNLWLQIHTGSLQEEDNELGVAHFVEHMMFNGTKTWPGNKVIETFESMGLRFGRDVNAYTSYDETVYQVSLPTTQKQNLQQVMAIFSEWSNAATFEKLEVDAERGVITEEWRAHQDAKWRTSQARRPFLLANTRNLDREPIGLMDTVATVTPAQLRQFYQRWYQPNNMTFIVVGDIDSKEALALIKDNLSKLPANKAAENRVWPTKAENHLRFNIINDKENRVNGIALYYRLPMVQVNDEQSFIEQAEWSMLVQLFNQRLQERIQSGELKTISGGTARSVKIAPDYQSLFFRVNARDDNMQDAANALMAELATIDQHGFSAEELDDVKSTRLTWLKNAVDQQAERDLRMLTSRLASSSLNNTPFLSPEETYQLSKRLWQQITVQSLAEKWQQLRKNQDAFWEQMVNNEVAAKKALSPAAILALEKEYANKKLAAYVFPGRNLSLTVDADPQAEISSKETLAENLTSLTLSNGARVILAKSAGEEQKLQIIAVSNKGDLSFPAQQKSLIALANKAVSGSGVGELSSSSLKRWSAENSVTMSSKVSGMNTLLSVSARTNNPEPGFQLINQRITHSTINDNIWASLQNAQIQALKTLDQRPAEKFAQQMYETRYADDRTKLLQENQIAQFTAADALAADRQLFSSPADITFVIVGNVAEDKLVALITRYLGSIKHSDSPLAAGKPLTRATDNASVTVKEQNEPVAQVSQWKRYDSRTPVNLPTRMALDAFNVALAKDLRVNIREQASGAYSVSSRLSVDPQAKDISHLLAFTCQPERHDELLTLANEVMVKRLAKGISEQELNEYQQNVQRSLDIQQRSVQQLANTIVNSLIQYDDPAAWTEQEQLLKQMTVENVNTAVKQYLSHPVNTYTGVLLPK | 4.62 ± 0.69 | 5.77 ± 0.74 | 4.77 ± 1.3 | 5.5 | 4.55 ± 0.17 | 2.905 ± 0.0097 | 5.9 ± 0.39 | 10.2 ± 0.87 | 5.41 ± 0.45 | 9.96 ± 0.61 | 4.84 ± 0.2 | 9.3 ± 0.6
2 | MEISWGRALWRNFLGQSPDWYKLALIIFLIVNPLIFLISPFVAGWLLVAEFIFTLAMALKCYPLLPGGLLAIEAVFIGMTSAEHVREEVAANLEVLLLLMFMVAGIYFMKQLLLFIFTRLLLSIRSKMLLSLSFCVAAAFLSAFLDALTVVAVVISVAVGFYGIYHRVASSRTEDTDLQDDSHIDKHYKVVLEQFRGFLRSLMMHAGVGTALGGVMTMVGEPQNLIIAKAAGWHFGDFFLRMSPVTVPVLICGLLTCLLVEKLRWFGYGETLPEKVREVLQQFDDQSRHQRTRQDKIRLIVQAIIGVWLVTALALHLAEVGLIGLSVIILATSLTGVTDEHAIGKAFTESLPFTALLTVFFSVVAVIIDQQLFSPIIQFVLQASEHAQLSLFYIFNGLLSSISDNVFVGTIYINEAKAAMESGAITLKQYELLAVAINTGTNLPSVATPNGQAAFLFLLTSALAPLIRLSYGRMVWMALPYTLVLTLVGLLCVEFTLAPVTEWFMQMGWIATL [P0AFA7] | – | – | 6.59 ± 0.35 | 6.07 ± 0.93 | 6.4 ± 0.18 | – | – | 13.8 ± 0.64 | 5.91 ± 0.38 | 11.2 ± 4.7 | 6.58 ± 0.48 | 12.8 ± 0.14
3 | MEIYENENDQVEAVKRFFAENGKALAVGVILGVGALIGWRYWNSHQVDSARSASLAYQNAVTAVSEGKPDSIPAAEKFAAENKNTYGALASLELAQQFVDKNELEKAAAQLQQGLADTSDENLKAVINLRLARVQVQLKQADAALKTLDTIKGEGWAAIVADLRGEALLSKGDKQGARSAWEAGVKSDVTPALSEMMQMKINNLSI | 5.43 ± 0.11 | 5.4 ± 0.35 | 5.99 ± 0.76 | 6.64 ± 0.78 | 5.52 ± 0.16 | 2.83 ± 0.14 | 4.7 ± 0.38 | 10.3 ± 0.96 | 5.8 ± 0.6 | 11.9 ± 0.17 | 4.55 ± 0.6 | 8.84 ± 0.18
4 | MEKAKQVTWRLLAAGVCLLTVSSVARADSLDEQRSRYAQIKQAWDNRQMDVVEQMMPGLKDYPLYPYLEYRQITDDLMNQPAVTVTNFVRANPTLPPARTLQSRFVNELARREDWRGLLAFSPEKPGTTEAQCNYYYAKWNTGQSEEAWQGAKELWLTGKSQPNACDKLFSVWRASGKQDPLAYLERIRLAMKAGNTGLVTVLAGQMPADYQTIASAIISLANNPNTVLTFARTTGATDFTRQMAAVAFASVARQDAENARLMIPSLAQAQQLNEDQIQELRDIVAWRLMGNDVTDEQAKWRDDAIMRSQSTSLIERRVRMALGTGDRRGLNTWLARLPMEAKEKDEWRYWQADLLLERGREAEAKEILHQLMQQRGFYPMVAAQRIGEEYELKIDKAPQNVDSALTQGPEMARVRELMYWNLDNTARSEWANLVKSKSKTEQAQLARYAFNNQWWDLSVQATIAGKLWDHLEERFPLAYNDLFKRYTSGKEIPQSYAMAIARQESAWNPKVKSPVGASGLMQIMPGTATHTVKMFSIPGYSSPGQLLDPETNINIGTSYLQYVYQQFGNNRIFSSAAYNAGPGRVRTWLGNSAGRIDAVAFVESIPFSETRGYVKNVLAYDAYYRYFMGDKPTLMSATEWGRRY [P0AGC3] | 5.924 ± 0.022 | 6.7 ± 0.89 | 6.326 ± 0.06 | 6.53 ± 0.35 | 6.054 ± 0.043 | 3.16 ± 0.12 | 6.34 ± 0.25 | 12 ± 2.2 | 6.29 ± 0.41 | 12.2 ± 0.23 | 6.07 ± 0.19 | 12.3 ± 0.39
5 | MEKENITIDPRSSFTPSSSADIPVPPDGLVQRSTRIKRIQTTAMLLLFFAAVINYLDRSSLSVANLTIREELGLSATEIGALLSVFSLAYGIAQLPCGPLLDRKGPRLMLGLGMFFWSLFQAMSGMVHNFTQFVLVRIGMGIGEAPMNPCGVKVINDWFNIKERGRPMGFFNAASTIGVAVSPPILAAMMLVMGWRGMFITIGVLGIFLAIGWYMLYRNREHVELTAVEQAYLNAGSVNARRDPLSFAEWRSLFRNRTMWGMMLGFSGINYTAWLYLAWLPGYLQTAYNLDLKSTGLMAAIPFLFGAAGMLVNGYVTDWLVKGGMAPIKSRKICIIAGMFCSAAFTLIVPQATTSMTAVLLIGMALFCIHFAGTSCWGLIHVAVASRMTASVGSIQNFASFICASFAPIITGFIVDTTHSFRLALIICGCVTAAGALAYIFLVRQPINDPRKD | – | – | – | – | – | – | – | 5.28 | – | – | – | –
6 | MEKKIGFIGCGNMGKAILGGLIASGQVLPGQIWVYTPSPDKVAALHDQFGINAAESAQEVAQIADIIFAAVKPGIMIKVLSEITSSLNKDSLVVSIAAGVTLDQLARALGHDRKIIRAMPNTPALVNAGMTSVTPNALVTPEDTADVLNIFRCFGEAEVIAEPMIHPVVGVSGSSPAYVFMFIEAMADAAVLGGMPRAQAYKFAAQAVMGSAKMVLETGEHPGALKDMVCSPGGTTIEAVRVLEEKGFRAAVIEAMTKCMEKSEKLSKS [P0A9L8] | 6.83 ± 1.6 | 5.45 ± 0.76 | 5.12 ± 0.073 | 5.68 ± 0.49 | 5.54 ± 0.52 | 3.01 ± 0.19 | 6.48 ± 1 | 10.6 ± 2.5 | 5.02 ± 0.91 | 9.31 ± 1 | 5.51 ± 0.83 | 11.8 ± 0.66
7 | MEKNSLFSQRIRLRHLHTFVAVAQQGTLGRAAETLNLSQPALSKTLNELEQLTGARLFERGRQGAQLTLPGEQFLTHAVRVLDAINTAGRSLHRKEGLNNDVVRVGALPTAALGILPSVIGQFHQQQKETTLQVATMSNPMILAGLKTGEIDIGIGRMSDPELMTGLNYELLFLESLKLVVRPNHPLLQENVTLSRVLEWPVVVSPEGTAPRQHSDALVQSQGCKIPSGCIETLSASLSRQLTVEYDYVWFVPSGAVKDDLRHATLVALPVPGHGAGEPIGILTRVDATFSSGCQLMINAIRKSMPF | 5.7 ± 0.088 | 2.66 ± 1.2 | 2.014 ± 0.017 | 4.21 ± 0.12 | 1.61 ± 0.065 | 1.77 ± 0.26 | 3.159 ± 0.0044 | 4.49 ± 0.46 | 2.01 ± 0.12 | 2.5 ± 0.039 | 2.67 ± 0.7 | 3.86 ± 0.13
8 | MEKTTTQELLAQAEKICAQRNVRLTPQRLEVLRLMSLQDGAISAYDLLDLLREAEPQAKPPTVYRALDFLLEQGFVHKVESTNSYVLCHLFDQPTHTSAMFICDRCGAVKEECAEGVEDIMHTLAAKMGFALRHNVIEAHGLCAACVEVEACRHPEQCQHDHSVQVKKKPR [P0AC51] | 5.27 ± 0.88 | 5.4504 ± 0.0027 | 5.09 | 5.63 ± 0.19 | 4.2 ± 0.9 | – | 3.79 | 9 ± 1.9 | 5.15 | 6.28 | 3.86 ± 0.18 | 8.62 ± 0.42
